Experimental data from patent publication US20160264649A1.

Tests used:
Test in all cases: cell-based or functional assay
[1] = molecular target: HIV-1 MGRM-A-007 Env (HIV-1)
[2] = molecular target: HIV-1 MGRM-A-003 Env (HIV-1)
[3] = molecular target: HIV-1 94UG103 Env (HIV-1)
[4] = molecular target: HIV-1 92RW020 Env (HIV-1)
[5] = molecular target: HIV-1 92RW026 Env (HIV-1)
[6] = molecular target: HIV-1 94KE105 Env (HIV-1)
[7] = molecular target: HIV-1 MGRM-A-012 Env (HIV-1)
[8] = molecular target: HIV-1 92UG031 Env (HIV-1)
[9] = molecular target: HIV-1 MGRM-A-013 Env (HIV-1)
[10] = molecular target: HIV-1 92RW024 Env (HIV-1)
[11] = molecular target: HIV-1 MGRM-A-014 Env (HIV-1)
[12] = molecular target: HIV-1 92RW021 Env (HIV-1)
[13] = molecular target: HIV-1 92RW008 Env (HIV-1)
[14] = molecular target: HIV-1 MGRM-A-009 Env (HIV-1)
[15] = molecular target: HIV-1 93RW029 Env (HIV-1)
HIV-1 VLGCA1 Env (HIV-1) = molecular target: HIV-1 VLGCA1 Env (HIV-1)
[16] = molecular target: HIV-1 Env of pseudovirus isolate MGRM-G-017 (subtype G) (HIV-1)
[17] = molecular target: HIV-1 Env of isolate CAAN.A2 (subtype B) (HIV-1)
[18] = molecular target: HIV-1 Env of isolate 92WR021 (subtype A) (HIV-1)
[19] = molecular target: HIV-1 Env of isolate 92UG114 (subtype D) (HIV-1)
[20] = molecular target: HIV-1 Env of isolate MGRM-AE-004 (subtype AE) (HIV-1)
[21] = molecular target: HIV-1 Env of isolate MGRM-F1-010 (subtype F) (HIV-1)
[22] = molecular target: HIV-1 Env of isolate MGRM-D-028 (subtype D) (HIV-1)
[23] = molecular target: HIV-1 Env of pseudovirus isolate MGRM-G-016 (subtype G) (HIV-1)
[24] = molecular target: HIV-1 Env of isolate MG RM-C-024 (subtype C) (HIV-1)
[25] = molecular target: HIV-1 Env of isolate 94UG103 (subtype A) (HIV-1)
[26] = molecular target: HIV-1 Env of isolate 92TH021 (subtype AE) (HIV-1)
[27] = molecular target: HIV-1 Env of isolate 6535.3 (subtype B) (HIV-1)
[28] = molecular target: HIV-1 Env of isolate MGRM-F1-004 (subtype F) (HIV-1)
[29] = molecular target: HIV-1 Env of isolate MG RM-C-022 (subtype C) (HIV-1)
[30] = molecular target: HIV-1 Env of isolate MGRM-Chronic-B-017 (subtype B) (HIV-1)
[31] = molecular target: HIV-1 Env of isolate MG RM-C-019 (subtype C) (HIV-1)
[32] = molecular target: HIV-1 Env of isolate MG RM-C-026 (subtype C) (HIV-1)
[33] = molecular target: HIV-1 Env of isolate 94 KE 105 (subtype AC) (HIV-1)
[34] = molecular target: HIV-1 Env of isolate MGRM-D-024 (subtype D) (HIV-1)
[35] = molecular target: HIV-1 Env of isolate MGRM-F1-012 (subtype F) (HIV-1)
[36] = molecular target: HIV-1 Env of isolate MGRM-D-019 (subtype D) (HIV-1)
[37] = molecular target: HIV-1 Env of isolate 92UG024 (subtype D) (HIV-1)
[38] = molecular target: HIV-1 Env of isolate MGRM-D-016 (subtype D) (HIV-1)
[39] = molecular target: HIV-1 Env of isolate 93MW959 (subtype C) (HIV-1)
[40] = molecular target: HIV-1 Env of pseudovirus isolate MGRM-G-006 (subtype G) (HIV-1)
[41] = molecular target: HIV-1 Env of isolate MGRM-AE-003 (subtype AE) (HIV-1)
[42] = molecular target: HIV-1 Env of isolate 97ZA012 (subtype C) (HIV-1)
[43] = molecular target: HIV-1 Env of isolate 92WR024 (subtype A) (HIV-1)
[44] = molecular target: HIV-1 MGRM-A-011 Env (HIV-1)
[45] = molecular target: HIV-1 MGRM-A-010 Env (HIV-1)
[46] = molecular target: HIV-1 MGRM-A-002 Env (HIV-1)
[47] = molecular target: HIV-1 92UG037 Env (HIV-1)
[48] = molecular target: HIV-1 MGRM-A-006 Env (HIV-1)
[49] = molecular target: HIV-1 MGRM-A-005 Env (HIV-1)

1496_C09 (PG9) (TCN-109) (antibody)
neutralization IC50 [1]: 0.37 µg/mL | neutralization IC50 [2]: 0.65 µg/mL | neutralization IC50 [3]: 0.24 µg/mL | neutralization IC50 [4]: 0.08 µg/mL | neutralization IC50 [5]: 0.27 µg/mL | neutralization IC50 [6]: 29.6 µg/mL | neutralization IC50 [7]: 11.2 µg/mL | neutralization IC50 [8]: 3.08 µg/mL | neutralization IC50 [9]: 0.16 µg/mL | neutralization IC50 [10]: 0.18 µg/mL | neutralization IC50 [11]: 0.62 µg/mL | neutralization IC50 [12]: 0.05 µg/mL | neutralization IC50 [13]: 0.01 µg/mL | neutralization IC50 [14]: 0.03 µg/mL | neutralization IC50 [15]: 1.19 µg/mL | neutralization IC50 (HIV-1 VLGCA1 Env (HIV-1)): 0.07 µg/mL | IC50 [16]: 0.104 µg/mL | IC50 [17]: 19.3 µg/mL | IC50 (pseudovirus neutralization) [18]: 0.027 µg/mL | IC50 (pseudovirus neutralization) [19]: 40.6 µg/mL | IC50 (pseudovirus neutralization) [20]: 0.009 µg/mL | IC50 (pseudovirus neutralization) [21]: 0.012 µg/mL | IC50 (pseudovirus neutralization) [22]: 20.2 µg/mL | IC50 [23]: 1.36 µg/mL | IC50 (µg/mL), pseudovirus neutralization [24]: 0.227 µg/mL | IC50 (pseudovirus neutralization) [25]: 0.34 µg/mL | IC50 (pseudovirus neutralization) [26]: 0.059 µg/mL | IC50 [27]: 1.05 µg/mL | IC50 (pseudovirus neutralization) [28]: 0.175 µg/mL | IC50 (µg/mL), pseudovirus neutralization [29]: 0.346 µg/mL | IC50 [30]: 0.688 µg/mL | IC50 (µg/mL), pseudovirus neutralization [31]: 0.005 µg/mL | IC50 (µg/mL), pseudovirus neutralization [32]: 0.06 µg/mL | IC50 (pseudovirus neutralization) [33]: 37.9 µg/mL | IC50 (pseudovirus neutralization) [34]: 0.038 µg/mL | IC50 (pseudovirus neutralization) [35]: 0.023 µg/mL | IC50 (pseudovirus neutralization) [36]: 0.038 µg/mL | IC50 (neutralization) [37]: 1.86 µg/mL | IC50 (pseudovirus neutralization) [38]: 0.098 µg/mL | IC50 (µg/mL), pseudovirus neutralization [39]: 0.054 µg/mL | IC50 [40]: 1.98 µg/mL | IC50 (pseudovirus neutralization) [41]: 0.044 µg/mL | IC50 (µg/mL), pseudovirus neutralization [42]: 3.4 µg/mL | IC50 (pseudovirus neutralization) [43]: 0.258 µg/mL

2F5 (antibody)
neutralization IC50 [44]: > 50 µg/mL | neutralization IC50 [45]: 20.8 µg/mL | neutralization IC50 [46]: > 50 µg/mL | neutralization IC50 [1]: 16.3 µg/mL | neutralization IC50 [2]: 7.37 µg/mL | neutralization IC50 [47]: 3.24 µg/mL | neutralization IC50 [3]: 1.92 µg/mL | neutralization IC50 [4]: 3.36 µg/mL | neutralization IC50 [5]: 8.63 µg/mL | neutralization IC50 [6]: > 50 µg/mL | neutralization IC50 [7]: 2.36 µg/mL | neutralization IC50 [48]: 15.7 µg/mL | neutralization IC50 [8]: 3.81 µg/mL | neutralization IC50 [9]: 0.66 µg/mL | neutralization IC50 [10]: 8.22 µg/mL | neutralization IC50 [11]: 1.43 µg/mL | neutralization IC50 [49]: 5.7 µg/mL | neutralization IC50 [12]: 4.16 µg/mL | neutralization IC50 [13]: 10.4 µg/mL | neutralization IC50 [14]: 9.4 µg/mL | neutralization IC50 [15]: > 50 µg/mL | neutralization IC50 (HIV-1 VLGCA1 Env (HIV-1)): 3.9 µg/mL

VRC01 (antibody)
IC50 [16]: 0.124 µg/mL | IC50 [17]: 0.722 µg/mL | IC50 (pseudovirus neutralization) [18]: 0.066 µg/mL | IC50 (pseudovirus neutralization) [19]: 0.33 µg/mL | IC50 (pseudovirus neutralization) [20]: 0.187 µg/mL | IC50 (pseudovirus neutralization) [21]: 0.097 µg/mL | IC50 (pseudovirus neutralization) [22]: 0.377 µg/mL | IC50 [23]: 0.063 µg/mL | IC50 [24]: 3.4 µg/mL | IC50 (pseudovirus neutralization) [25]: 0.285 µg/mL | IC50 (pseudovirus neutralization) [26]: 0.616 µg/mL | IC50 [27]: 1.75 µg/mL | IC50 (pseudovirus neutralization) [28]: 0.305 µg/mL | IC50 [29]: 13 µg/mL | IC50 [30]: 0.141 µg/mL | IC50 [31]: 1.13 µg/mL | IC50 [32]: 0.707 µg/mL | IC50 (pseudovirus neutralization) [33]: 0.499 µg/mL | IC50 (pseudovirus neutralization) [34]: 0.366 µg/mL | IC50 (pseudovirus neutralization) [35]: 0.488 µg/mL | IC50 (pseudovirus neutralization) [36]: 0.119 µg/mL | IC50 (neutralization) [37]: 0.576 µg/mL | IC50 (pseudovirus neutralization) [38]: 0.452 µg/mL | IC50 [39]: 0.053 µg/mL | IC50 [40]: 0.055 µg/mL | IC50 (pseudovirus neutralization) [41]: 0.685 µg/mL | IC50 [42]: 0.088 µg/mL | IC50 (pseudovirus neutralization) [43]: 0.327 µg/mL
